One block for each molecule: values may come before it.
Experiments:
[1] = test system: GR repression of an AP-1 induced gene; test: GR-mediated repression of PMA-induced AP-1/Luc reporter in U2OS.rGR cells; assay type: cell-based; conditions: for fold repression of PMA-induced AP-1 expression by Dex-bound GR: 25 μM PMA ± 0.1 μM Dex, TIF2 20 ng, STAMP 100 ng plasmid
Method: FIG. 5A-F illustrate STAMP modulation of GR-mediated repression. […] U2OS.rGR cells were transiently transfected with ±TIF2 (20 ng)±STAMP (100 ng) plasmids, AP-1/Luc reporter (20 ng), and Renilla control (10 ng) plasmid. The cells were induced with ethanol (EtOH) or 25 μM PMA±0.1 μM Dex. […] The average values±S.E.M. of four experiments are plotted. The numbers in parentheses above the bars labeled “PMA+Dex” represent the average fold repression caused by Dex± the various factors.
FIG. 5B illustrates that functional TIF2 is needed for optimal STAMP activity. U2OS.rGR cells were transiently transfected and processed as described for FIG. 5A but less STAMP (50 ng) was used and two concentrations of TIF2 or TIF2m123 (10 and 20 ng) were employed. The average values±S.E.M. of 4-5 experiments are plotted. An asterisk indicates a significant difference (P≦0.031) between samples containing equal amounts of TIF2 and TIF2m123.
Rogatsky et al. have reported that TIF2 augments GR repression of an AP-1 induced gene. […] The TIF2 domain identified as having TIF2 activity in GR repression was the same as used to isolate STAMP. In order to determine if STAMP was active in GR-mediated gene repression as well as induction, the ability of STAMP to increase the repressive activity of GR in the AP-1 responsive whole cell bioassay system was assessed using U2OS.rGR cells.

[2] = biological target: T1, glucocorticoid receptor (GR) (Rattus norvegicus, UniProt P06536); test: GR-mediated induction of GREtkLUC reporter, transient transfection of CV-1 cells
T1 sequence (P06536 1-795): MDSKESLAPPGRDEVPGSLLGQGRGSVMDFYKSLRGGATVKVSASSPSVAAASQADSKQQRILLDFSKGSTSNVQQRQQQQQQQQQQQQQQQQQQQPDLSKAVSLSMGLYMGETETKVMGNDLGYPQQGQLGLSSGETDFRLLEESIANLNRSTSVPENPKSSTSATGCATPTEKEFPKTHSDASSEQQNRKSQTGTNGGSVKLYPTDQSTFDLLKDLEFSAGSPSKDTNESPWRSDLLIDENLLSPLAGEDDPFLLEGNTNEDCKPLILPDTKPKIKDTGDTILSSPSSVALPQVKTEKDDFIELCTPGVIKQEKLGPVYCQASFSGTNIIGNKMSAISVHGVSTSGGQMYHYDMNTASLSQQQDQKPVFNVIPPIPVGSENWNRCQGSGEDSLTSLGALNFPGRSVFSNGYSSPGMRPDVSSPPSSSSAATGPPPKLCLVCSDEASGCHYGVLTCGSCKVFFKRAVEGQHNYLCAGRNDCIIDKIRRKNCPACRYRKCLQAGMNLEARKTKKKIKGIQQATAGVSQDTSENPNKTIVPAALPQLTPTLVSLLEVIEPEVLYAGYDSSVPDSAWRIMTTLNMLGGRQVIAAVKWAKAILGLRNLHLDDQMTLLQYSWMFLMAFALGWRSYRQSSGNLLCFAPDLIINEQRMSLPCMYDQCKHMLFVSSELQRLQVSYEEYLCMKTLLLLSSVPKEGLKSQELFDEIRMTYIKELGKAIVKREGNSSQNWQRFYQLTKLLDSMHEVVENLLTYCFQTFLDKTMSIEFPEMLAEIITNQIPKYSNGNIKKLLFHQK
Method: Triplicate samples of CV-1 cells were transiently transfected with GR (6 ng)±TIF2 (20 ng)±STAMP (160 ng) plasmids, GREtkLUC reporter, and Renilla control plasmid. […] FIG. 4B illustrates the fold changes in GR induction parameters by STAMP and TIF2. […] The fold-increase in each parameter was determined as follows: for EC50s, fold increase=[EC50]GR/[EC50]GR+factor; for partial agonist activity and fold Dex induction, fold increase=activityGR+factor/activityGR). The average fold increases were then plotted±S.E.M (n=4).
CV-1 cells were transiently transfected with GR (6 ng)±TIF2 (20 ng)±STAMP (160 ng) plasmids, GREtkLUC reporter, and Renilla control plasmid, and induced with ethanol± the indicated concentrations of Dex.
Tests were run to determine whether exogenous STAMP can modulate the EC50 of glucocorticoids and the partial agonist activity of antiglucocorticoids in the transient transfection assays where GR induced gene expression from a GREtkLUC reporter.

GR = biological target: T2, GR (Rattus norvegicus, UniProt P06536); test: Mammalian two-hybrid assay in CV-1 cells with VP16/GR; assay type: cell-based; conditions: VP16/GR ± 1 μM Dex
T2 construct: plus VP16 fused to the indicated full length receptors; expressed in transfected cells; host or cells: CV-1
T2 sequence (P06536 1-795): T1 sequence (P06536 1-795)
Source text: FIGS. 6A and 6B illustrate the domains of STAMP that interact with TIF2.4 (FIG. 6A) and GR (FIG. 6B) in the mammalian two-hybrid assay. […] These CV-1 cells were also transfected with GAL fused to the indicated segments of STAMP along with the FRLuc reporter and Renilla control plasmids. After determining the relative luciferase activities as described in FIG. 2B and 2C, the average values±S.E.M. from 2-5 experiments were plotted. The average fold increase for VP16/TIF2.4 with GAL/STAMP(623-834) in FIG. 6A was 11.0±3.0 (SEM, n=5) above the VP16 control. The values in parentheses above the data bars in FIG. 6B indicate the fold increased interaction ±1 μM Dex.
These assays were conducted as described (He et al., 2002). In particular, the recommended procedure for the Mammalian Matchmaker two-hybrid assay kit (Clontech) was modified slightly by changing from a chloramphenicol acetyltransferase reporter to a Luciferase Reporter pFRLuc (Stratagene), which is under the control of five repeats of the upstream activating sequence for the binding of GAL4.

[3] = in the presence of transfected GR and TIF2

Molecule: TIF2: glucocorticoid receptor coactivator transcription intermediary factor-2
fold repression of PMA-induced AP-1 expression by Dex-bound GR [1]: about 9 fold | fold induction by PMA ([1]; 25 μM PMA, no Dex): unchanged | effect on GR dose-response curve and induction parameters ([2]; TIF2 alone (FIG. 4A1)): similar, small effect

Molecule: C[C@@H]1C[C@H]2[C@@H]3CCC4=CC(=O)C=C[C@]4(C)[C@@]3(F)[C@@H](O)C[C@]2(C)[C@@]1(O)C(=O)CO [dexamethasone]
fold repression of PMA-induced AP-1 expression by Dex-bound GR [1]: about 5 fold

B1: GAL/N834: STAMP fragment amino acids 1-834, TTL domain and CID region (protein)
chain: MARDLEETASSSEDEEVISQEDHPCIMWTGGCRRIPVLVFHADAILTKDNNIRVIGERYHLSYKIVRTDSRLVRSILTAHGFHEVHPSSTDYNLMWTGSHLKPFLLRTLSEAQKVNHFPRSYELTRKDRLYKNIIRMQHTHGFKVFHILPQTFLLPAEYAEFCNSYSKDRGPWIVKPVASSRGRGVYLINNPNQISLEENILVSRYINNPLLIDDFKFDVRLYVLVTSYDPLVIYLYEEGLARFATVRYDQGAKNIRNQFMHLTNYSVNKKSGDYVSCDDPEVEDYGNKWSMSAMLRYLKQEGRDTTALMAHVEDLIIKTIISAELAIATACKTFVPHRSSCFELYGFDVLIDSTLKPWLLEVNLSPSLACDAPLDLKIKASMISDMFTVVGFVCQDPAQRASTRPIYPTFESSRRNPFQKPQRCRPLSASDAEMKNLVGSAREKGPGKLGGSVLGLSMEEIKVLRRVKEENDRRGGFIRIFPTSETWEIYGSYLEHKTSMNYMLATRLFQDRMTADGAPELKIESLNSKAKLHAALYERKLLSLEVRKRRRRSSRLRAMRPKYPVITQPAEMNVKTETESEEEEEVALDNEDEEQEASQEESAGFLRENQAKYTPSLTALVENTPKENSMKVREWNNKGGHCCKLETQELEPKFNLMQILQDNGNLSKMQARIAFSAYLQHVQIRLMKDSGGQTFSASWAAKEDEQMELVVRFLKRASNNLQHSLRMVLPSRRLALLERRRILAHQLGDFIIVYNKETEQMAEKKSKKKVEEEEEDGVNMENFQEFIRQASEAELEEVLTFYTQKNKSASVFLGTHSKISKNNNNYSDSGAKG
modifications: GAL4 DBD fusion
notes: STAMP fragment amino acids 1-834, TTL domain and CID region
interaction with GR (GR): relative inactivity

B5: STAMP(834-956): STAMP fragment amino acids 834-956, N-terminal portion of the RID (protein)
chain: GDHPETIMEEVKIKPPKQQQTTEIHSDKLSRFTTSAEKEAKLVYSNSSSGPTATLQKIPNTHLSSVTTSDLSPGPCHHSSLSQIPSAIPSMPHQPTILLNTVSASASPCLHPGAQNIPSPTGL
modifications: GAL4 DBD fusion
notes: STAMP fragment amino acids 834-956, N-terminal portion of the RID
interaction with GR (GR): substantial ligand-independent association

The next lines start with the values.

ability to increase the partial agonist activity of Dex-Mes, retained [2, 3]: 40% | capacity of full length STAMP to increase the fold induction with Dex, retained [2, 3]: 85%
B2: STAMP623C: STAMP fragment amino acids 623 to 1277, CID and RID but no TTL domain (protein)
chain: ENTPKENSMKVREWNNKGGHCCKLETQELEPKFNLMQILQDNGNLSKMQARIAFSAYLQHVQIRLMKDSGGQTFSASWAAKEDEQMELVVRFLKRASNNLQHSLRMVLPSRRLALLERRRILAHQLGDFIIVYNKETEQMAEKKSKKKVEEEEEDGVNMENFQEFIRQASEAELEEVLTFYTQKNKSASVFLGTHSKISKNNNNYSDSGAKGDHPETIMEEVKIKPPKQQQTTEIHSDKLSRFTTSAEKEAKLVYSNSSSGPTATLQKIPNTHLSSVTTSDLSPGPCHHSSLSQIPSAIPSMPHQPTILLNTVSASASPCLHPGAQNIPSPTGLPRCRSGSHTIGPFSSFQSAAHIYSQKLSRPSSAKAGSCYLNKHHSGIAKTQKEGEDASLYSKRYNQSMVTAELQRLAEKQAARQYSPSSHINLLTQQVTNLNLATGIINRSSASAPPTLRPIISPSGPTWSTQSDPQAPENHSSSPGSRSLQTGGFAWEGEVENNVYSQATGVVPQHKYHPTAGSYQLQFALQQLEQQKLQSRQLLDQSRARHQAIFGSQTLPNSNLWTMNNGAGCRISSATASGQKPTTLPQKVVPPPSSCASLVPKPPPNHEQVLRRATSQKASKGSSAEGQLNGLQSSLNPAASVPITSSTDPAHTKI

interaction with GR (GR): largest agonist-induced changes
B3: 956-1127: STAMP fragment amino acids 956 to 1127, portion of the RID region (protein)
chain: LPRCRSGSHTIGPFSSFQSAAHIYSQKLSRPSSAKAGSCYLNKHHSGIAKTQKEGEDASLYSKRYNQSMVTAELQRLAEKQAARQYSPSSHINLLTQQVTNLNLATGIINRSSASAPPTLRPIISPSGPTWSTQSDPQAPENHSSSPGSRSLQTGGFAWEGEVENNVYSQAT
modifications: GAL4 DBD fusion
notes: STAMP fragment amino acids 956 to 1127, portion of the RID region

interaction with GR (GR): largest agonist-induced changes
B4: 1127C: STAMP fragment amino acids 1127 to 1277, C-terminal part of the RID (protein)
chain: TGVVPQHKYHPTAGSYQLQFALQQLEQQKLQSRQLLDQSRARHQAIFGSQTLPNSNLWTMNNGAGCRISSATASGQKPTTLPQKVVPPPSSCASLVPKPPPNHEQVLRRATSQKASKGSSAEGQLNGLQSSLNPAASVPITSSTDPAHTKI
modifications: GAL4 DBD fusion
notes: STAMP fragment amino acids 1127 to 1277, C-terminal part of the RID
